From publication PMC9095892 (The Journal of Biological Chemistry, 2022)

B1: Streptomyces griseus StrM (TDP-sugar 3'',5''-epimerase, RmlC ortholog) (enzyme, UniProt P29783 1-200, looked up)
chain: MRPLSVQGAWLSETRAFADDRGEFQELYSARSLRGALGYDPGVAQVNRSVSRRGVLRGVHFAQLPPSQAKYVTCLSGAVLDVVVDIRTGSPTYRAWEAVRLDDPHRSLYVEAGLGHSFMALTDDAVVVYLTSQGYAAGREHGVHPLDPDLGIAWPDGIEPVLSEKDRQAPGIAEMERRGLLPDYEECLAFRRSLCERGTG
notes: also called SgStrM

Assays:
[1] = test system: Cc1cn([C@H]2C[C@H](O)[C@@H](COP(=O)(O)OP(=O)(O)O[C@H]3O[C@H](C)C(=O)[C@H](O)[C@H]3O)O2)c(=O)[nH]c1=O; assay: purified protein; conditions: pH 7.5
crystal structure = biological target: the molecule itself; assay: crystal structure

Row | Molecule | Km [1] | kcat/Km [1] | binding result (crystal structure)
1 | EvaD (AoEvaD) (Amycolatopsis orientalis) | 632 ± 98 µM | 630 ± 70 M⁻¹ s⁻¹ | –
2 | RmlC (EcRmlC; E. coli RfbC) (Escherichia coli K-12) | 830 ± 40 µM | 6600 ± 200 M⁻¹ s⁻¹ | –
3 | StrM (SgStrM) (Streptomyces griseus) | 600 ± 40 µM | 9100 ± 400 M⁻¹ s⁻¹ | –
4 | B1 | – | – | binds
